Laboratory results published in US20140315822A1 (INSTITUT PASTEUR, published 2014).
Read-outs that look alike come from different tables or passages of the source.

B1: PDZ domain of the human PTPN4 protein (other)
chain: SSPEKPTPNGGIPHDNLVLIRMKPDENGRFGFNVKGGYDQKMPVIVSRVAPGTPADLCVPRLNEGDQVVLINGRDIAEHTHDQVVLFIKASCERHSGELMLLVRPN
notes: domain: PDZ domain
B2: PDZ domain of the human MAST2 protein (other)
chain: MRPPIIIHRAGKKYGFTLRAIRVYMGDSDVYTVHHMVWHVEDGGPASEAGLRQGDLITHVNGEPVHGLVHTEVVELILKSGNKVAISTTPLEN

What was measured:
VIR13 (Neurovita 1) [1] = target: VIR13 (Neurovita 1) (rabies virus); test: method not restated in the table; ITC per paragraph 50
VIR13 (Neurovita 1) [2] = target: VIR13 (Neurovita 1) (rabies virus)

| Binder | Kd (VIR13 (Neurovita 1) [1]) [µM] | Kd (VIR13 (Neurovita 1) [2]) [µM] |
| --- | --- | --- |
| B1 | 560 | – |
| B2 | – | 1.26 |
